In publication doi:10.1101/2020.02.20.958934 (bioRxiv, 2020):

Target: T1, PEBP1 (UniProt P70296 1-187)
T1 sequence (looked up): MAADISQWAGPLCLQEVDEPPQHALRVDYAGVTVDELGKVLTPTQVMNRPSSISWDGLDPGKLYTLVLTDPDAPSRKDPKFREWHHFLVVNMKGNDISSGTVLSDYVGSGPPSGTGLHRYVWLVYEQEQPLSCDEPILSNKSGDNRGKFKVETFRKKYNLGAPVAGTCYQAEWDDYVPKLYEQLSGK
Experiment: ITC

dH: -1380 kJ/mol
stoichiometry N: 0.753 ± 0.0359
B1: dendritic cell factor 1 (DCF1) (natural protein)
chain: EAFDSVLGDTASCHRACQLTYPLHTYPKEEELYACQRGCRLFSICQFVDDGLDLNRTKLECESACTEAYSQPDEQYACHLGCQDQLPFAELRQEQLMSLMPRMHLLFPLTLVRSFWSDMMDSAQSFITSSWTFYLQADDGKIVIFQSKPEIQYAPQLEQEPTNLRESSLSKMSYLQMRNSQAHRNYLEEEESDGFLRCLSLNSGWILTTTLVLSVMVLLWICCAAVATAVEQYVPPEKLSIYGDLEFMNEQKLSRYPAPSLVIVRSQTEEHEEAGPLPTKVNLAHSEI
